Laboratory results published in patent US6767890 (COASTSIDE BIO RESOURCES, dated 2004).
No end group written: not given here.

T1: Cyclooxygenase-1 from ram seminal vesicle (ram (sheep), UniProt P05979 25-600)
T1 sequence (looked up): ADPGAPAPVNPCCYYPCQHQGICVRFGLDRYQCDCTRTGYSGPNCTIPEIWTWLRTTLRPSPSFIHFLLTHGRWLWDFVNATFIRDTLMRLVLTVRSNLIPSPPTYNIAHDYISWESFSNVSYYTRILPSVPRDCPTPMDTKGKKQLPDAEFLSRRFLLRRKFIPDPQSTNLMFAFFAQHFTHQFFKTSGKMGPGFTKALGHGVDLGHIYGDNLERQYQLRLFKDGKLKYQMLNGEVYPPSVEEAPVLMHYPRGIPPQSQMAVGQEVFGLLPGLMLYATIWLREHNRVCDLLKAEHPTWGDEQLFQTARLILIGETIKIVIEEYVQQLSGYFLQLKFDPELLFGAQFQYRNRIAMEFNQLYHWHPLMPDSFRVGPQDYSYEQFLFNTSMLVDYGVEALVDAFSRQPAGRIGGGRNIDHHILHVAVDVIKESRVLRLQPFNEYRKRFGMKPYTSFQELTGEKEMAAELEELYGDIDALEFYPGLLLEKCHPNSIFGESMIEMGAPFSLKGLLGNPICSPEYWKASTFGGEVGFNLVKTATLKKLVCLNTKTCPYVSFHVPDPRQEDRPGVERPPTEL

T2: Cyclooxygenase-2 from sheep placenta (sheep, UniProt P79208 17-603)
T2 sequence (looked up): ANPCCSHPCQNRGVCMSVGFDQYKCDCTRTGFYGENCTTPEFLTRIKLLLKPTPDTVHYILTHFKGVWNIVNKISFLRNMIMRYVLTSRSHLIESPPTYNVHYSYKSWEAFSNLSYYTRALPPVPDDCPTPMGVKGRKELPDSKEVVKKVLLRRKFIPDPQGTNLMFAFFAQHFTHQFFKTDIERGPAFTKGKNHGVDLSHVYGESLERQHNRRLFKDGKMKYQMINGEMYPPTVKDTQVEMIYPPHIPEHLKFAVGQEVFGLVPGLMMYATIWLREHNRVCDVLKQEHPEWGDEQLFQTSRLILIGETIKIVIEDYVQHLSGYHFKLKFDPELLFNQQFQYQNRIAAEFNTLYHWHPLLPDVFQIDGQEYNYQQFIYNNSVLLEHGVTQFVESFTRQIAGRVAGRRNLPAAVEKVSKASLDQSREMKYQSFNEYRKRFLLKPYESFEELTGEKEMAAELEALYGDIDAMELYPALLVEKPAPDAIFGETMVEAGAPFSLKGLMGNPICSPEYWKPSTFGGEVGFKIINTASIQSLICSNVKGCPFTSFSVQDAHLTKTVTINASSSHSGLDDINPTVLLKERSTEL

T3: Interleukin-1α receptor on mouse Swiss/3T3 cells (mouse, UniProt P13504 20-576)
T3 construct: whole, on cells; also called Interleukin-1α (assay target)
T3 sequence (looked up): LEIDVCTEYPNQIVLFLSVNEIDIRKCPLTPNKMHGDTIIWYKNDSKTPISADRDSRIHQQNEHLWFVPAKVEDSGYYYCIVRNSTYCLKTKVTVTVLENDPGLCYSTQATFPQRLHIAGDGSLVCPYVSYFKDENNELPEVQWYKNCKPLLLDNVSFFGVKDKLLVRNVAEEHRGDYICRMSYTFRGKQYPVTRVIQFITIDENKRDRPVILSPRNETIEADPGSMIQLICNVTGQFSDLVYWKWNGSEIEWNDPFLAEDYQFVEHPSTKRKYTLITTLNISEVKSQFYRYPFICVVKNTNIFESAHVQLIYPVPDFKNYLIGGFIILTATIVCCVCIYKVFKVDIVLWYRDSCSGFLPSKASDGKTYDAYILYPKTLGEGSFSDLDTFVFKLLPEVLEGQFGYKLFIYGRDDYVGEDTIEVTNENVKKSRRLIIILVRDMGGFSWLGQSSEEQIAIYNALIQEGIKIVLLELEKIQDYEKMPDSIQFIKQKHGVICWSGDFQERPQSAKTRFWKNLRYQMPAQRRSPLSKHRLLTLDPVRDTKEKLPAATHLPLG

B1: Interleukin-1α (ligand, UniProt P01583 113-271, looked up)
chain: SAPFSFLSNVKYNFMRIIKYEFILNDALNQSIIRANDQYLTAAALHNLDEAVKFDMGAYKSSKDDAKITVILRISKTQLYVTAQDEDQPVLLKEMPEIPKTITGSETNLLFFWETHGTKNYFTSVAHPNLFIATKQDYWVCLAGGPPSITDFQILENQA
modifications: 125I label on the radioligand
notes: also called IL-1 alpha; [125I]IL-1 alpha

Tests used:
[1] = biological target: Galanin receptor of rat ileum (rat); experiment: cell-based or functional assay
[2] = biological target: Phospholipase A2 from porcine pancreas (porcine, UniProt P00592 23-146); experiment: cell-based or functional assay
Chain of Phospholipase A2 from porcine pancreas (P00592 23-146): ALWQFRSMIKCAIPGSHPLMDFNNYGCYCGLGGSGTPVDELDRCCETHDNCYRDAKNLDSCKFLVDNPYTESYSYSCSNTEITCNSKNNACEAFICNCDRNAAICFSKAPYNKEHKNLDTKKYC

[3] = biological target: Collagenase IV from human U937 cells (human, UniProt P14780 107-707); experiment: cell-based or functional assay
Chain of Collagenase IV from human U937 cells (P14780 107-707): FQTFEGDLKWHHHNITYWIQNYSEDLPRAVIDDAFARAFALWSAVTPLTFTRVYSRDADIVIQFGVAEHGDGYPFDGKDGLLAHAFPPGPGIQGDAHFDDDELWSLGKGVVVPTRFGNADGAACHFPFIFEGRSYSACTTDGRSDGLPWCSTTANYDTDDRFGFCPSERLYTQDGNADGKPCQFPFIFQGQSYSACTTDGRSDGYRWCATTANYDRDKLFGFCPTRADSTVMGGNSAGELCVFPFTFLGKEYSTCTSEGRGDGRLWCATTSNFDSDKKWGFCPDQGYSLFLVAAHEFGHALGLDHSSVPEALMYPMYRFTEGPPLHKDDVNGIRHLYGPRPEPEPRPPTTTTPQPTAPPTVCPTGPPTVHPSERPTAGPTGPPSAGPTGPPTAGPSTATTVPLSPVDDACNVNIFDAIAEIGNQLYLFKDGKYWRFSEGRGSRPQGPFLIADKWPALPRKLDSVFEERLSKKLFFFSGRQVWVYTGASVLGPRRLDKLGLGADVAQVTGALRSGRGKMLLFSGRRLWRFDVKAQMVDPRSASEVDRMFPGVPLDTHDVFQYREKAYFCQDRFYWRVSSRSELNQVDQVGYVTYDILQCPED

[4] = biological target: T1, Cyclooxygenase-1 from ram seminal …; experiment: cell-based or functional assay
[5] = biological target: Protein kinase C - γ, rabbit brain (recombinant) (rabbit, UniProt P10829 1-697, limits assumed); experiment: cell-based or functional assay
[6] = biological target: Ca++/calmodulin dependent protein kinase II from rat brain (rat); experiment: cell-based or functional assay
[7] = biological target: T2, Cyclooxygenase-2 from sheep placenta; experiment: cell-based or functional assay
[8] = biological target: Protein kinase C, non-selective, from rat brain (rat); experiment: cell-based or functional assay
[9] = biological target: T3, Interleukin-1α receptor on mouse …; experiment: historical value of the assay laboratory, saturation analysis of [125I]IL-1 alpha on mouse Swiss/3T3 cells

Row | Binder | Agonism (contraction of rat ileum relative to 0.1 µM galanin), peptide 30 µM [1] [%] | % Inhibition of enzyme activity, peptide 300.0 µM [2] [%] | % Inhibition of enzyme activity, peptide 100.0 µM [3] [%] | % Inhibition of enzyme activity, peptide 300.0 µM [4] [%] | % Inhibition of enzyme activity, peptide 100.0 µM [5] [%] | % Inhibition of enzyme activity, peptide 100.0 µM [6] [%] | % Inhibition of enzyme activity, peptide 300.0 µM [7] [%] | % Inhibition of enzyme activity, peptide 300.0 µM [8] [%] | Kd [9] [nM]
1 | LPPSR (also: at least one D-amino acid, position not given here) | 0 | -11 | 2 | 2 | -6 | 12 | 2 | -6 | –
2 | B1 | – | – | – | – | – | – | – | – | 0.18
